Measured values taken from patent US20260035462A1 (Hoffmann-La Roche, published 2026).

Columns and labels:
[1] = target: T1, Trop2 on human cancer cell lines (T-47D, HPAF II, HeLa NLR, OVMANA) (human, UniProt P09758 27-323); assay: flow cytometry on HPAF II cells, FITC anti-human IgG Fcγ secondary antibody, median fluorescence
T1 construct: whole, on cells; also called Tumor-associated calcium signal transducer 2
T1 sequence (looked up): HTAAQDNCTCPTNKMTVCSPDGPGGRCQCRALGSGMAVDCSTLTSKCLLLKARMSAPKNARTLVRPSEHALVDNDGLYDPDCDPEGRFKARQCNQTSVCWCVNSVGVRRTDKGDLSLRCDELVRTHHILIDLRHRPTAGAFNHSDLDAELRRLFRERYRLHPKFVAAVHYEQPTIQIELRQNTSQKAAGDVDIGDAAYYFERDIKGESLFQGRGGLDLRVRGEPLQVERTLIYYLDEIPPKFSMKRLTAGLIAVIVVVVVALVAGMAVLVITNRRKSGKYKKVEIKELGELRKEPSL
Method: (§1) Target cells were harvested and transferred into a 96 well round bottom plate (100,000 cells per well). […] After the staining, the cells were washed twice with FACS buffer to remove unbound molecules. […] After 30 minutes incubation at 4° C. the cells were washed twice with FACS buffer to remove unbound antibodies. Finally, the cells were resuspended in 100 μl FACS buffer and analyzed by flow cytometry using BD Canto II.

[2] = target: T1, Trop2 on human cancer cell lines …; assay: flow cytometry on OVMANA cells, FITC anti-human IgG Fcγ secondary antibody, median fluorescence
Method: as §1

[3] = target: T2, human CD3 on Jurkat NFAT reporter T cells (human, UniProt P07766 23-207); assay: flow cytometry on Jurkat NFAT reporter T cells (human CD3), 1:4 titration from 50 nM, FITC anti-human IgG Fcγ secondary antibody, median fluorescence; sample not treated with Matriptase
T2 construct: whole, on cells; also called CD3 on Jurkat T cells
T2 sequence (P07766 23-207): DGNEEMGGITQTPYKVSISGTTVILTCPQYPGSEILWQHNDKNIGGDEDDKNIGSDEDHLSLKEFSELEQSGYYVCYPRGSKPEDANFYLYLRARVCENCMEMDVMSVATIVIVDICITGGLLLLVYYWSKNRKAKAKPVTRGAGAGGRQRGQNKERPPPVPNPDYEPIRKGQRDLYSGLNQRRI
Method: (§2) Jurkat-NFAT reporter cells (GloResponse Jurkat NFAT-RE-luc2P; Promega #CS176501) are a human acute lymphatic leukemia reporter cell line with a NFAT promoter, expressing human CD3. The cells were cultured in RPMI1640, 2 g/l glucose, 2 g/l NaHCO₃, 10% FBS, 25 mM HEPES, 2 mM L-glutamin, 1×NEAA, 1× sodium-pyruvate at 0.1-0.5 mio cells per ml.
(§3) The next day, Jurkat cells were harvested and transferred into a 96 well round bottom plate (100,000 cells per well). […] After the staining, the cells were washed twice with FACS buffer to remove unbound molecules. […] After 30 minutes incubation at 4° C. the cells were washed twice with FACS buffer to remove unbound antibodies. Finally, the cells were resuspended in 100 μl FACS buffer and analyzed by flow cytometry using BD Canto II.

[4] = target: T1, Trop2 on human cancer cell lines …; assay: flow cytometry on T-47D cells, FITC anti-human IgG Fcγ secondary antibody, median fluorescence
Method: as §1

[5] = target: T2, human CD3 on Jurkat NFAT reporter T …; assay: flow cytometry on Jurkat NFAT reporter T cells (human CD3), 1:4 titration from 50 nM, FITC anti-human IgG Fcγ secondary antibody, median fluorescence; sample pre-incubated overnight with Matriptase (+M)
Method: as §2, §3

[6] = target: T1, Trop2 on human cancer cell lines …; assay: flow cytometry on HeLa ST14 cells, FITC anti-human IgG Fcγ secondary antibody, median fluorescence
Method: as §1

[7] = target: T2, human CD3 on Jurkat NFAT reporter T …; assay: flow cytometry on Jurkat NFAT reporter T cells (human CD3), 1:4 titration from 50 nM, FITC anti-human IgG Fcγ secondary antibody, median fluorescence; sample pre-incubated overnight with Matriptase (+M); remark: listed apart in the source
Method: (§4) Jurkat-NFAT reporter cells (GloResponse Jurkat NFAT-RE-luc2P; Promega #CS176501) are a human acute lymphatic leukemia reporter cell line with a NFAT promoter, expressing human CD3. The cells were cultured in RPMI1640, 2 g/l glucose, 2 g/l NaHCO₃, 10% FBS, 25 mM HEPES, 2 mM L-glutamin, 1×NEAA, 1×sodium-pyruvate at 0.1-0.5 mio cells per ml.
(§5) The next day, Jurkat cells were harvested and transferred into a 96 well round bottom plate (100′000 cells per well). […] After the staining, the cells were washed twice with FACS buffer to remove unbound molecules. […] After 30 min incubation at 4° C. the cells were washed twice with FACS buffer to remove unbound antibodies. Finally, the cells were resuspended in a 100 μl FACS buffer and analyzed by flow cytometry using BD Canto II.

[8] = target: T2, human CD3 on Jurkat NFAT reporter T …; assay: flow cytometry on Jurkat NFAT reporter T cells (human CD3), 1:4 titration from 50 nM, FITC anti-human IgG Fcγ secondary antibody, median fluorescence; sample not treated with Matriptase; remark: listed apart in the source
Method: as §4, §5

B1: classical Trop2 TCB P1AI0692 (unmasked) (bispecific antibody, human IgG1, lambda, L234A L235A)
heavy 1: DIQMTQSPSSLSASVGDRVTITCKASQDVSIAVAWYQQKPGKAPKVLIYSASYRYTGVPDRFSGSGSGTDFTFTISSLQPEDIAVYYCQQHYITPLTFGGGTKVEIKSSASTKGPSVFPLAPSSKSTSGGTAALGCLVKDYFPEPVTVSWNSGALTSGVHTFPAVLQSSGLYSLSSVVTVPSSSLGTQTYICNVNHKPSNTKVDKKVEPKSCDKTHTCPPCPAPEAAGGPSVFLFPPKPKDTLMISRTPEVTCVVVDVSHEDPEVKFNWYVDGVEVHNAKTKPREEQYNSTYRVVSVLTVLHQDWLNGKEYKCKVSNKALGAPIEKTISKAKGQPREPQVCTLPPSRDELTKNQVSLSCAVKGFYPSDIAVEWESNGQPENNYKTTPPVLDSDGSFFLVSKLTVDKSRWQQGNVFSCSVMHEALHNHYTQKSLSLSPG
heavy 2: not shown
light 1: QAVVTQEPSLTVSPGGTVTLTCGSSTGAVTTSNYANWVQEKPGQAFRGLIGGTNKRAPGTPARFSGSLLGGKAALTLSGAQPEDEAEYYCALWYSNLWVFGGGTKLTVLGQPKAAPSVTLFPPSSKKLQANKATLVCLISDFYPGAVTVAWKADSSPVKAGVETTTPSKQSNNKYAASSYLSLTPEQWKSHRSYSCQVTHEGSTVEKTVAPTECS
light 2: QIQLVQSGHEVKKPGASVKVSCKASGYTFTNYGMNWVRQAPGQGLEWMGWINTKTGEPTYAEEFKGRFVFSLETSASTAYLQISSLKAEDMAMYFCGRGGYGSSYWYFDVWGQGTTVTVSSASVAAPSVFIFPPSDEQLKSGTASVVCLLNNFYPREAKVQWKVDNALQSGNSQESVTEQDSKDSTYSLSSTLTLSKADYEKHKVYACEVTHQGLSSPVTKSFNRGEC
notes: Tested with and without Matriptase pre-treatment; no mask; also called unmasked Trop2 TCB; unmasked classical TCB
- EC50 (read off the curve) [1]: ~1 nM
- EC50 (read off the curve) [2]: ~1 nM
- EC50 (read off the curve) [3]: ~1 nM
- EC50 (read off the curve) [4]: ~0.9 nM
- EC50 (read off the curve) [5]: ~1 nM
- EC50 (read off the curve) [6]: ~1 nM

B2: classical IGF-1R TCB P1AH0975 (unmasked) (bispecific antibody, human IgG1, lambda, L234A L235A)
heavy 1: EIVLTQSPATLSLSPGERATLSCRASQSVSSYLAWYQQKPGQAPRLLIYDASKRATGIPARFSGSGSGTDFTLTISSLEPEDFAVYYCQQRSKWPPWTFGQGTKVESKSSASTKGPSVFPLAPSSKSTSGGTAALGCLVKDYFPEPVTVSWNSGALTSGVHTFPAVLQSSGLYSLSSVVTVPSSSLGTQTYICNVNHKPSNTKVDKKVEPKSCDKTHTCPPCPAPEAAGGPSVFLFPPKPKDTLMISRTPEVTCVVVDVSHEDPEVKFNWYVDGVEVHNAKTKPREEQYNSTYRVVSVLTVLHQDWLNGKEYKCKVSNKALGAPIEKTISKAKGQPREPQVCTLPPSRDELTKNQVSLSCAVKGFYPSDIAVEWESNGQPENNYKTTPPVLDSDGSFFLVSKLTVDKSRWQQGNVFSCSVMHEALHNHYTQKSLSLSPG
heavy 2: not shown
light 1: B1 light 1
light 2: QVELVESGGGVVQPGRSQRLSCAASGFTFSSYGMHWVRQAPGKGLEWVAIIWFDGSSTYYADSVRGRFTISRDNSKNTLYLQMNSLRAEDTAVYFCARELGRRYFDLWGRGTLVSVSSASVAAPSVFIFPPSDEQLKSGTASVVCLLNNFYPREAKVQWKVDNALQSGNSQESVTEQDSKDSTYSLSSTLTLSKADYEKHKVYACEVTHQGLSSPVTKSFNRGEC
notes: Tested with and without Matriptase pre-treatment; no mask; also called unmasked classical IGF-1R TCB
- EC50 (read off the curve) [7]: ~0.8 nM
- EC50 (read off the curve) [8]: ~0.7 nM

B3: Matriptase pre-cleaved IGF-1R proTCB (P1AH0943 after overnight incubation with human recombinant Matriptase) (bispecific antibody)
heavy 1: B2 heavy 1
heavy 2: not shown
light 1: B1 light 1
light 2: B2 light 2
notes: also called Matriptase pre-cleaved (+M) IGF-1R proTCB
- EC50 (read off the curve) [7]: ~0.9 nM
